Data as given in the supplement of paper PMC12764529.
± gives the half width of the 95% confidence interval.

Experiment: folding stability dG unfold from chymotrypsin proteolysis; higher = more stable
Experimental: (§1)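 Folding stability of de novo designed mini-proteins (<80 aa, no Cys; designed by TrROS, TrMRF, ProteinMPNN and the joint model) was measured by cDNA display proteolysis with trypsin and chymotrypsin. Each protease was used at 11 concentrations in a threefold dilution series plus a no-protease condition. K50 was inferred by Bayesian fitting of sequencing counts, and dG unfold was derived against a sequence-predicted unfolded-state K50 (Tsuboyama et al. method). Sequences shown include variable-length N-terminal GS-type padding (SAGGSAGG...) inside a display construct carrying a PA tag. Rows were kept only if the AF2 dimer inter-PAE was >15, to exclude likely homo-oligomers.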

Sequence | folding stability dG unfold [kcal/mol]
SAGGSAGGSAGEPKIKKKYIIPLKLKDPNTDKVYIANIEVDNKEEVPKIVKKLKDKGYLSSAGGSAGGSAGG [r11_668_TrMRF] | 0.351 ± 0.32
SAGGSAGGSKIKSITIDPEAGKVTIEVDKDTPPKPLPSVKTVEEKNDGYTVTFDVKDDEEILLSAGGSAGGS [r20_37_TrMRF] | 0.416 ± 0.086
SAGGLTLSTFESDEDVKPEWDPNKPVKVKVKTLTTTEPVPNRPHTVTTTTTLRENEEGTTPFTGTDTSAGGS [r16_300_JUSTAS] | 0.612 ± 0.061
SAGGMVLEKKSPSGTTTKTVVEETPDELYVKTTTLKGKTPTTSESVIPAPPPPPLPFPSGRPEELQLLSAGG [r13_691_JUSTAS] | -0.632 ± 0.45
SAGGSAGGSAGGSKRIRITIPENYRVRGPNGKQFSWNDIEELKASGFKPIEIEPLPPGASAGGSAGGSAGGS [r4_47_TrROS] | -1.06 ± 0.4
SAGGSAGGSGSMSLSESPTSRTLTLTYPDSVVVTEYDPETGPPVTRFVSREDGVPVVYPAELLSAGGSAGGS [r12_632_JUSTAS] | -0.0818 ± 0.1
SAGGSAGGMKKYTFDSGYEFEIDGATEEEAIEKLKEEGYPLPVKKITAEEVKPEPPPPFERNLKSAGGSAGG [r6_688_JUSTAS] | 0.109 ± 0.23
SAGGSAPPEVVEVPPVELPDYTVSPPRFAPEPTLRERTATPPDGPEFSVTTRIDPETGVPEVVVAASAGGSA [r15_84_JUSTAS] | 0.718 ± 0.017
SAGGNITPNQAKRQAQEIADWLAQEYQQQNPDMKVKVDVEVDPPDGEIKVDGEWPNGRPMAEITIPVKSAGG [r13_247_TrROS] | -0.0106 ± 0.13
SAGGSAGGSAGGSAPYALVEVLPGGVVVVAYPDGSRRLVEVERDPSSDLWRVLREEDLPSAGGSAGGSAGGS [r4_247_JUSTAS] | 0.688 ± 0.1
SAGGDPALLLPVERKVTIEYTDEDGKKFTVGDVTVLPSPEILVKIPGTGETIRVPPSVVKKVEEVPESAGGS [r8_410_JUSTAS] | -0.455 ± 0.18
SAGGSAGGSAGRKTLPMRNPNNGHEVTAEIEDENGKPIKIEAPMNSPEMRDMARDFAKKISAGGSAGGSAGG [r11_119_TrROS] | 0.355 ± 0.13
SAGGSAGGSAGDGDTMPFIMIHPDYLTINTWKFNPDGGLEIKSVKTIPLPPPKPSPDNKKSAGGSAGGSAGG [r11_843_TrROS] | -0.466 ± 0.45
SAPDMQITDVEISEVEKNPDGKRTIEIWMRMDNYTYKATFPADKDGKIKKLSMERDPENNWMRHKIEIDSAG [r14_189_TrROS] | 0.283 ± 0.34
SAGGSAGGSMYYLIKTKPPDGKEEYIIDPLPPGGSIEDIIPEDLEIEEIKPFKSKEEAEKYLKSAGGSAGGS [r20_18_JUSTAS] | 0.516 ± 0.46
SADWLSVPFELLEEKPPPADKPLPEGSSAEVVVEDPLRPGEPIKLEVFYFPEKGILILRYEGKEIEIKVGSA [r9_243_JUSTAS] | 0.673 ± 0.49
SAGMTVEEAAKEAIEKIPPTTKEVEFEIDLGEKPLIVKIENIPDPETNKPIPKVIVEDPDEPKKVEFEISAG [r5_236_TrMRF] | 0.104 ± 0.13

Experiment: folding stability dG unfold (combined trypsin and chymotrypsin); higher = more stable
Experimental: as §1

Sequence | folding stability dG unfold [kcal/mol]
SAGGSAGGSAGEPKIKKKYIIPLKLKDPNTDKVYIANIEVDNKEEVPKIVKKLKDKGYLSSAGGSAGGSAGG [r11_668_TrMRF] | -0.0903 ± 0.4
SAGGSAGGSKIKSITIDPEAGKVTIEVDKDTPPKPLPSVKTVEEKNDGYTVTFDVKDDEEILLSAGGSAGGS [r20_37_TrMRF] | -0.39 ± 0.41
SAGGLTLSTFESDEDVKPEWDPNKPVKVKVKTLTTTEPVPNRPHTVTTTTTLRENEEGTTPFTGTDTSAGGS [r16_300_JUSTAS] | -0.11 ± 0.12
SAGGMVLEKKSPSGTTTKTVVEETPDELYVKTTTLKGKTPTTSESVIPAPPPPPLPFPSGRPEELQLLSAGG [r13_691_JUSTAS] | < -1
SAGGSAGGSAGGSKRIRITIPENYRVRGPNGKQFSWNDIEELKASGFKPIEIEPLPPGASAGGSAGGSAGGS [r4_47_TrROS] | < -1
SAGGSAGGSGSMSLSESPTSRTLTLTYPDSVVVTEYDPETGPPVTRFVSREDGVPVVYPAELLSAGGSAGGS [r12_632_JUSTAS] | -0.414 ± 0.09
SAGGSAGGMKKYTFDSGYEFEIDGATEEEAIEKLKEEGYPLPVKKITAEEVKPEPPPPFERNLKSAGGSAGG [r6_688_JUSTAS] | -0.451 ± 0.29
SAGGSAPPEVVEVPPVELPDYTVSPPRFAPEPTLRERTATPPDGPEFSVTTRIDPETGVPEVVVAASAGGSA [r15_84_JUSTAS] | 0.211 ± 0.067
SAGGNITPNQAKRQAQEIADWLAQEYQQQNPDMKVKVDVEVDPPDGEIKVDGEWPNGRPMAEITIPVKSAGG [r13_247_TrROS] | -0.618 ± 0.24
SAGGSAGGSAGGSAPYALVEVLPGGVVVVAYPDGSRRLVEVERDPSSDLWRVLREEDLPSAGGSAGGSAGGS [r4_247_JUSTAS] | 0.278 ± 0.068
SAGGDPALLLPVERKVTIEYTDEDGKKFTVGDVTVLPSPEILVKIPGTGETIRVPPSVVKKVEEVPESAGGS [r8_410_JUSTAS] | < -1
SAGGSAGGSAGRKTLPMRNPNNGHEVTAEIEDENGKPIKIEAPMNSPEMRDMARDFAKKISAGGSAGGSAGG [r11_119_TrROS] | -0.154 ± 0.18
SAGGSAGGSAGDGDTMPFIMIHPDYLTINTWKFNPDGGLEIKSVKTIPLPPPKPSPDNKKSAGGSAGGSAGG [r11_843_TrROS] | -0.48 ± 0.21
SAGGSAGGSAGGSPELVPVSTEVVELETESVLELEESKVEVKERLEIVVKRLTKEGLGLESAGGSAGGSAGG [r7_485_JUSTAS] | < -1
SMITPEDLEALKAAGVELVSRDPNNRVTLFDPATNTPIELEVEEVPPPPPVTFPGNGPSVEERRAWLERRSA [r9_649_JUSTAS] | < -1
SAGGSAGGSMDLEDMKIKSIYIPDNPIMITFKNKGKHRTRTIPEDNWQILKDLLGDGDITIHPSAGGSAGGS [r12_604_TrROS] | < -1
SAGGSMTTTLDFSDDSTTTITTTPTPDSSSVRSITTTDASGNPLSSTTLNFDPQGNVTETTTSSAPSAGGSA [r2_260_JUSTAS] | < -1
SAGGEISIMFKSPEGVKEIAEELEENGLEVDVSPVPGYWMVRIQPKPKPPPTPEAAEKAQRDPDQANKSAGG [r13_8_TrROS] | < -1
SAGFDFPEDFTPIARDGVNSLWQGDGPVLLALRGPEGGSAVLPFKPGNPEEIFPLIEALAAGGVVDPSFSAG [r14_12_TrMRF] | < -1
SMELLEAVKKGVKTVTVLLKPGDEEKVKLAAELPVNIVLKASPEISEEVFKKIPGINLTEVKPLSPEELPSA [r9_671_JUSTAS] | < -1
SAGGSAGGSEIEIMAPFKSPEDARDQIREFAREKGLEIKPKKIEVHRNPNGWQWVTFKIEIKDSAGGSAGGS [r12_924_TrROS] | < -1
SAGGSMETIELTINLGSKTITKTEEVSPGREEELIEKIREEGYPEIKVDKITIKPPDGSTERTIGLKSAGGS [r8_219_JUSTAS] | < -1
SAGGSAGGSAGLLPPGARVRLTLRAPGEPEELEFTIPASVPSVEELIERHPPVLAVEVVGSAGGSAGGSAGG [r11_157_JUSTAS] | < -1
SAGGSAGGSAGGIEVDPDYAMITFPIPPNETIKFKLPNEKLKIEVPPGKPISIYIPAKDSAGGSAGGSAGGS [r10_464_TrROS] | < -1
SAGGSAGGRIRVPDGREIPPGQSKEEAKDQVKDWFKERNPQNGNKKVKIEAEKWDGMPWIRVKPSAGGSAGG [r6_558_TrROS] | < -1

Sequence | folding stability dG unfold [kcal/mol]
SAGGSAGGSAGMKTFTAPSGEKLVEVTIKTKNKEISVTVPPEEGGEAVAKKYGVSKKDIASAGGSAGGSAGG [r11_1039_JUSTAS] | < -1
SAGGSAGGSVIRIPPDDLRANLKPGMMVMIKDPGKPRMFPWDDLDKLPPNDPVEIEIIPMEPGSAGGSAGGS [r12_501_TrROS] | < -1
SAGGSAGGSAGVKEIADKFPGIKSIDVQRNKNGEQTVSIEHRSKGGPVKHTFPAEDLEPLSAGGSAGGSAGG [r17_116_TrROS] | < -1
SAGGSMVVTTEPDGSVTVTTSASSPEEAKASVIAYLKEQGLKVKSLPVEVPPDGSVTVTLPVEPPLESAGGS [r8_253_JUSTAS] | < -1
SAGGFYRLKIYNPDNGQPIEFPINWDEVEEAIKNGDLDELAEHYPGAPIDKIEVEPVKPVPPVPPDEKSAGG [r13_629_TrROS] | < -1
SAGGSAGGSAGITITQNPDGPVRIMWKHPNGKPVNEGDIKPDEAEKFADKNGMRPVSIEPSAGGSAGGSAGG [r11_521_TrROS] | < -1
SAGGSAGGSSAITHPDSDAGVAPVATTRSPNATPETVLRDDSPDPRRWILTASGERRVEPLLESAGGSAGGS [r12_205_JUSTAS] | < -1
SAGGSAGGSAGKIEVETNPENNYMRVKITNPGNGKKIKIPVPNGNPSDARDKAKELILEFSAGGSAGGSAGG [r17_386_TrROS] | < -1
SAGGPMREYTIKLPGKKITINEMPNPNGNEMTQVSVRDGGEPKRPVNMPNDNADEFAKKPGIKPDDIVSAGG [r13_108_TrROS] | < -1
SAGGSAGGSAGGKIKLAAANPKVAKELAKILEKELEEKGYKLKPNLKIEVLPAKPDPKLASAGGSAGGSAGG [r7_965_TrMRF] | < -1
SAGGSAGEKTLKIVIEGKDKEKVVKEAKPLLEKLFGAKEIKVKVEPLPDGGYKVPIEITVPPGAAKSAGGSA [r15_173_TrMRF] | < -1
SGINTEYTVTSVGPAGTPVTTELKTKIGNKEYSLTRTYQDPSGSVRLVNWKITSSPSGSSTISETVSPLPSA [r9_255_JUSTAS] | < -1
SAGGSAGGSAGGSLNISVSSEPLPGDLLVEKGEFPSPKTLTTLVEPGTGVVTTTTEAASSAGGSAGGSAGGS [r10_237_JUSTAS] | < -1
SAGMTTTETIEFPDSTTATVTSVEEGPTPNGTPVTTRTVTVTTYTPLRDADGKLLGEVPQTSTSTLTVASAG [r5_476_JUSTAS] | < -1
SAGGSAEPKPGVKAILFNENGEPIKEVSENEEILLPNGTPTKVYRLPDNSSIATHPDGYVALFVEGSAGGSA [r15_845_TrMRF] | < -1
SAGGGMRPVPVSEIIAKLKEEGYTVSKVSVYRPGSGEKLGTYDPNTPVVIPADEPDAVIEPVVEPKGSAGGS [r8_243_JUSTAS] | < -1
SAGGSAGGSAGGWLKGMPFKITKITDVRRNPENGRRWLTIRMPNPNRPVTVPLDDLPPGLSAGGSAGGSAGG [r7_304_TrROS] | < -1
SAGGSAGGSAGGDKKAIEELVKKLPPDTKLAPVKLPDGKEKLIFVERREDGSRKALVLDSAGGSAGGSAGGS [r10_1017_TrMRF] | < -1
SAGGSAGGSAGGGSPNVVVEKKLTVNLPKDVKLDFPPEYEVTVTKGKNTYKITEKIIVNKSAGGSAGGSAGG [r7_584_JUSTAS] | < -1
SAGGSAGGSSPPDATIPREEAEKYVKEKVREENLKAGKPLKKVKKLIVKEDPNSDNVKVTVIESAGGSAGGS [r12_583_JUSTAS] | < -1
SAGGSAGGGMMKTITITESVVLEVRPVTSENGRVYPEVLSEVLKTTTVPFPPGNEEEIEKAIKESAGGSAGG [r6_738_JUSTAS] | < -1
SAGGSAKPYIVIKGEYENPGKKHDMDIQIPPEDLDNPERARELAEEIKDEMRQQGAPVKDVEIEPVSAGGSA [r15_781_TrROS] | < -1
SSITFPVPKEEKEPDPDGDPHPRREPKPVPIPPDAIRDQIYNMIRTELRDAGLPDMTEEDIDDPEFIDRLSA [r9_263_TrROS] | < -1
SAGGSAGGSAGGFPNMPIKEIKIDNPERVPGKPRVRIEFTFPGGPRKFMMPADDLQDMFSAGGSAGGSAGGS [r10_771_TrROS] | < -1
SAALGPEKAEELAEALARELAEKAGVEKVEAKVEPLPDERWVAEIYFPPVGKKARVVFEKDKPRLVEVGSAG [r14_925_TrMRF] | < -1
